According to doi:10.1101/2022.12.06.518574 (bioRxiv, 2022):

Legend:
AUC [1] = biological target: the molecule itself; assay: AUC
AUC [2] = biological target: the molecule itself; assay: AUC; remark: listed apart in the source

Row | Protein | stoichiometry N (AUC [1]) | percent as octamer (AUC [2]) [%]
1 | Sen[K252,255A] (enzyme, UniProt Q5XD01 1-435, looked up) MSIITDVYAREVLDSRGNPTLEVEVYTESGAFGRGMVPSGASTGEHEAVELRDGDKSRYLGLGTQKAVDNVNNIIAKAIIGYDVRDQQAIDRAMIALDGTPNKGKLGANAILGVSIAVARAAADYLEVPLYTYLGGFNTKVLPTPMMNIINGGSHSDAPIAFQEFMIMPVGAPTFKEGLRWGAEVFHALKKILKERGLVTAVGDEGGFAPKFEGTEDGVETILKAIEAAGYEAGENGIMIGFDCASSEFYDAERAVYDYTKFEGEGAAVRTSAEQVDYLEELVNKYPIITIEDGMDENDWDGWKVLTERLGKRVQLVGDDFFVTNTEYLARGIKENAANSILIKVNQIGTLTETFEAIEMAKEAGYTAVVSHRSGETEDSTIADIAVATNAGQIKTGSLSRTDRIAKYNQLLRIEDQLGEVAQYKGIKSFYNLKK | 8 | ≥ 95
2 | Sen[K252,255,434,435A] (enzyme, UniProt Q5XD01 1-435, looked up) MSIITDVYAREVLDSRGNPTLEVEVYTESGAFGRGMVPSGASTGEHEAVELRDGDKSRYLGLGTQKAVDNVNNIIAKAIIGYDVRDQQAIDRAMIALDGTPNKGKLGANAILGVSIAVARAAADYLEVPLYTYLGGFNTKVLPTPMMNIINGGSHSDAPIAFQEFMIMPVGAPTFKEGLRWGAEVFHALKKILKERGLVTAVGDEGGFAPKFEGTEDGVETILKAIEAAGYEAGENGIMIGFDCASSEFYDAERAVYDYTKFEGEGAAVRTSAEQVDYLEELVNKYPIITIEDGMDENDWDGWKVLTERLGKRVQLVGDDFFVTNTEYLARGIKENAANSILIKVNQIGTLTETFEAIEMAKEAGYTAVVSHRSGETEDSTIADIAVATNAGQIKTGSLSRTDRIAKYNQLLRIEDQLGEVAQYKGIKSFYNLAA | 8 | ≥ 95
3 | Sen[K434,435A] (enzyme, UniProt Q5XD01 1-435, looked up) MSIITDVYAREVLDSRGNPTLEVEVYTESGAFGRGMVPSGASTGEHEAVELRDGDKSRYLGLGTQKAVDNVNNIIAKAIIGYDVRDQQAIDRAMIALDGTPNKGKLGANAILGVSIAVARAAADYLEVPLYTYLGGFNTKVLPTPMMNIINGGSHSDAPIAFQEFMIMPVGAPTFKEGLRWGAEVFHALKKILKERGLVTAVGDEGGFAPKFEGTEDGVETILKAIEAAGYEAGENGIMIGFDCASSEFYDKERKVYDYTKFEGEGAAVRTSAEQVDYLEELVNKYPIITIEDGMDENDWDGWKVLTERLGKRVQLVGDDFFVTNTEYLARGIKENAANSILIKVNQIGTLTETFEAIEMAKEAGYTAVVSHRSGETEDSTIADIAVATNAGQIKTGSLSRTDRIAKYNQLLRIEDQLGEVAQYKGIKSFYNLAA | 8 | ≥ 95
